According to patent US20200148784A1 (AGILVAX, published 2020):

T1: human-xCT ECD3 peptide (human)
T1 construct: Coated at 1 µg/mL
T1 peptide: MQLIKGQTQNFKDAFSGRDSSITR

B1: 11D1/H10 subclone A1 (antibody)
heavy: QVQLQQSGAELVRPGASVKLSCKALGYTFTDYEMHWVKQTPVHGLEWIGAIHPGSGGTAYNQKFKGKATLTADKSSSTAYMELSSLTSEDSAVYYCTRPLYYRYPYYFDYWGQGTTLTVSSESQSFPNVFPLVSCESPLSDKNLVAMGCLARDFLPSTISFTWNYQNNTEVIQGIRTFPTLRTGGKYLATSQVLLSPKSILEGSDEYLVCKIHYGGKNRDLHVPIPAVAEMNPNVNVFVPPRDGFSGPAPRKSKLICEATNFTPKPITVSWLKDGKLVESGFTTDPVTIENKGSTPQTYKVISTLTISEIDWLNLNVYTCRVDHRGLTFLKNVSSTCAASPSTDILTFTIPPSFADIFLSKSANLTCLVSNLATYETLNISWASQSGEPLETKIKIMESHPNGTFSAKGVASVCVEDWNNRKEFVCTVTHRDLPSPQKKFISKPNEVHKHPPAVYLLPPAREQLNLRESATVTCLVKGFSPADISVQWLQRGQLLPQEKYVTSAPMPEPGAPGFYFTHSILTVTEEEWNSGETYTCVVGHEALPHLVTERTVDKSTGKPTLYNVSLIMSDTGGTCY
light: QIVLTQSPAIMSASPGEKVTISCSASSSVSYMYWYQQKPGSSPKPWIYRTSNLASGVPARFSGSGSGTSYSLTISSMEAEDAATYYCQQYHSYPLTFGAGTKLELKRADAAPTVSIFPPSSEQLTSGGASVVCFLNNFYPKDINVKWKIDGSERQNGVLNSWTDQDSKDSTYSMSSTLTLTKDEYERHNSYTCEATHKTSTSPIVKSFNRNEC
B2: 11D1/H10 subclone D5 (antibody)
heavy: B1 heavy
light: B1 light
notes: IgM kappa
B3: 11D1/H10 subclone B9 (antibody)
heavy: B1 heavy
light: B1 light
notes: IgM kappa
B4: 11D1/H10 subclone A5 (antibody)
heavy: B1 heavy
light: B1 light
notes: IgM kappa
B5: 11D1/H10 subclone E1 (antibody)
heavy: B1 heavy
light: B1 light
notes: IgM kappa

Biological target: T1, human-xCT ECD3 peptide
Experiment: ELISA of subclone supernatant against xCT

| Binder | ELISA O.D. 450 |
| --- | --- |
| B1 | ≥ 0.4 |
| B2 | ≥ 0.4 |
| B3 | ≥ 0.4 |
| B4 | ≥ 0.4 |
| B5 | ≥ 0.4 |
